Data published in US20190270811A1 (UCB, published 2019).
Blank lines part the entries; values can stand above or below the binder they belong to.

Experiments:
[1] = target: T1, Human FcRn expressed on MDCK II clone 15 cells (human FcRn and human B2M) (human, UniProt P55899 24-365); assay: cell-based or functional assay
[2] = target: T2, Human FcRn extracellular domain (non-covalent complex of human FcRn alpha chain extracellular domain and … (human, UniProt P55899 24-297; P61769 21-119); assay: SPR Biacore T200, IgG4P captured by anti-human Fc, hFcRn ECD/b2M as analyte, pH 7.4, run 1
T2 construct: also called hFcRn; hFcRn alpha chain ECD region with human beta 2 microglobulin
Experimental: (§1) Biomolecular interaction analysis using surface plasmon resonance technology (SPR) was performed on a Biacore T200 system (GE Healthcare) and binding to human FcRn extracellular domain determined.
(§2) The surface was regenerated by 2×60 s 50 mM HCl at 10 μl/min for the running buffer at pH6 or by 60 s 40 mM HCl and 30 s 10 mM NaOH for the running buffer at pH7.4. The data was analysed using T200 evaluation software (version 1.0) using the 1:1 binding model with local Rmax.

[3] = target: T3, Cynomolgus macaque FcRn expressed on MDCK II clone 40 cells (cynomolgus macaque FcRn and B2M) (cynomolgus macaque, UniProt Q8SPV9 24-365; Q8SPW0 21-119); assay: quantitative flow cytometry on MDCK II clone 40 cells, pH 6.0, mean of n=3
T3 construct: whole, on cells; also called Cyno FcRn
Text: (§3) Specific binding of antibody to FcRn across a range of antibody concentrations was used to determine KD.

[4] = target: T2, Human FcRn extracellular domain …; assay: SPR Biacore T200, IgG4P captured by anti-human Fc, hFcRn ECD/b2M as analyte, pH 6.0, mean of 3
Experimental: as §1, §2

[5] = target: T1, Human FcRn expressed on MDCK II clone …; assay: quantitative flow cytometry, AlexaFluor 488-labelled antibody on MDCK II clone 15 cells, pH 6.0, mean of n=3
Experimental: as §3
(§4) The final antibody concentrations ranged from 400 nM to 0.003 nM. The cells were washed in ice cold Facs buffer then analysed by flow cytometry using a Guava flow cytometer (Millipore, UK). Titration data sets were also produced for isotype control antibodies for each antibody format to determine non-specific binding. The number of moles of bound antibody was calculated using interpolated values from a standard curve generated from beads comprised of differing amounts of fluorescent dye. Geometric mean fluorescence values were determined in the flow cytometric analyses of cells and beads. Non-specific binding was subtracted from the anti-FcRn antibody values and the specific binding curve generated was analysed by non-linear regression using a one-site binding equation (Graphpad Prism®) to determine the KD. Data is representative of 3 experiments.

[6] = target: T3, Cynomolgus macaque FcRn expressed on …; assay: quantitative flow cytometry on MDCK II clone 40 cells, pH 7.4, mean of n=3
[7] = target: T2, Human FcRn extracellular domain …; assay: SPR Biacore T200, IgG4P captured by anti-human Fc, hFcRn ECD/b2M as analyte, pH 7.4, run 2
Experimental: as §1, §2

[8] = target: T2, Human FcRn extracellular domain …; assay: SPR Biacore T200, IgG4P captured by anti-human Fc, hFcRn ECD/b2M as analyte, pH 7.4, run 3
Experimental: as §1, §2

[9] = target: T2, Human FcRn extracellular domain …; assay: SPR Biacore T200, IgG4P captured by anti-human Fc, hFcRn ECD/b2M as analyte, pH 6.0, run 2
Experimental: as §1, §2

[10] = target: T2, Human FcRn extracellular domain …; assay: SPR Biacore T200, IgG4P captured by anti-human Fc, hFcRn ECD/b2M as analyte, pH 7.4, mean of 3
Experimental: as §1, §2

[11] = target: T2, Human FcRn extracellular domain …; assay: SPR Biacore T200, IgG4P captured by anti-human Fc, hFcRn ECD/b2M as analyte, pH 6.0, run 1
Experimental: as §1, §2

[12] = target: T2, Human FcRn extracellular domain …; assay: SPR Biacore T200, IgG4P captured by anti-human Fc, hFcRn ECD/b2M as analyte, pH 6.0, run 3
Experimental: as §1, §2

[13] = target: T1, Human FcRn expressed on MDCK II clone …; assay: quantitative flow cytometry, AlexaFluor 488-labelled antibody on MDCK II clone 15 cells, pH 7.4, mean of n=3
Experimental: as §3, §4

T3 sequence (Q8SPV9 24-365, chain 1 of 2): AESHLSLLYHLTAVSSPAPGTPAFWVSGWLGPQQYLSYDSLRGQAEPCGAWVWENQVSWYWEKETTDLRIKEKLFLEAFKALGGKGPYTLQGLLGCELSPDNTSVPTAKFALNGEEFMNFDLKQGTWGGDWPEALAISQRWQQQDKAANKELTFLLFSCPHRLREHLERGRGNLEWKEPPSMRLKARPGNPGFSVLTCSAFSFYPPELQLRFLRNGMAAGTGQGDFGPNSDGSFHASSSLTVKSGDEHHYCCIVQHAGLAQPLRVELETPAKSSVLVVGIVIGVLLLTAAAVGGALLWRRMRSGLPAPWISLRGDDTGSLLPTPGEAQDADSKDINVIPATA
T3 sequence (Q8SPW0 21-119, chain 2 of 2): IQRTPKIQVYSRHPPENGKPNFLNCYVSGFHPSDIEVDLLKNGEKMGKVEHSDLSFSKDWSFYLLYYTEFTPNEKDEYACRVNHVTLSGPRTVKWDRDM

- apical to basolateral transcytosis of human IgG in MDCK II clone 15 cells, EC50 [1]: 420 pM
B1: CA170_1638.g49 FabFv (bispecific antibody)
heavy: EVQLVESGGGLVQPGGSLRLSCAASGFSLSTYGVGVGWVRQAPGKGLEWLANIWWDDDKRYNPSLENRFTISRDNAKNSAYLQMNSLRAEDTAVYYCARTPAYYGSHPPFDYWGQGTMVTVSSASTKGPSVFPLAPSSKSTSGGTAALGCLVKDYFPEPVTVSWNSGALTSGVHTFPAVLQSSGLYSLSSVVTVPSSSLGTQTYICNVNHKPSNTKVDKKVEPKSCSGGGGSGGGGTGGGGSEVQLLESGGGLVQPGGSLRLSCAVSGIDLSNYAINWVRQAPGKCLEWIGIIWASGTTFYATWAKGRFTISRDNSKNTVYLQMNSLRAEDTAVYYCARTVPGYSTAPYFDLWGQGTLVTVSS
light: DIQMTQSPSSLSASVGDRVTITCRTSEDIYTNLAWYQQKPGKVPKLLIYVAKTLQEGVPSRFSGSGSGTHYTLTISSLQPEDVATYYCLQGFKFPWTFGGGTKVEIKRTVAAPSVFIFPPSDEQLKSGTASVVCLLNNFYPREAKVQWKVDNALQSGNSQESVTEQDSKDSTYSLSSTLTLSKADYEKHKVYACEVTHQGLSSPVTKSFNRGECGGGGSGGGGSGGGGSDIQMTQSPSSVSASVGDRVTITCQSSPSVWSNFLSWYQQKPGKAPKLLIYEASKLTSGVPSRFSGSGSGTDFTLTISSLQPEDFATYYCGGGYSSISDTTFGCGTKVEIKRT

- Kd [2]: 25.7 pM
- koff [2]: 2.51e-05 s⁻¹
- kon [2]: 975000 M⁻¹ s⁻¹
- Kd [3]: 430 pM
- Kd [4]: 127 pM
- koff [4]: 0.000141 s⁻¹
- kon [4]: 1.1e+06 M⁻¹ s⁻¹
- Kd [5]: 220 pM
- Kd [6]: 300 pM
- Kd [7]: 33.2 pM
- koff [7]: 3.19e-05 s⁻¹
- kon [7]: 962000 M⁻¹ s⁻¹
- Kd [8]: 29.3 pM
- koff [8]: 2.82e-05 s⁻¹
- kon [8]: 962000 M⁻¹ s⁻¹
- IgG recycling in MDCK II clone 15 cells, EC50 [1]: 310 pM
- apical to basolateral transcytosis of human IgG in MDCK II clone 15 cells, EC50 [1]: 2400 pM
- Kd [9]: 126 pM
- koff [9]: 0.000139 s⁻¹
- kon [9]: 1.1e+06 M⁻¹ s⁻¹
- Kd [10]: 29.4 pM
- koff [10]: 2.84e-05 s⁻¹
- kon [10]: 967000 M⁻¹ s⁻¹
- Kd [11]: 129 pM
- koff [11]: 0.000143 s⁻¹
- kon [11]: 1.1e+06 M⁻¹ s⁻¹
- Kd [12]: 127 pM
- koff [12]: 0.00014 s⁻¹
- kon [12]: 1.11e+06 M⁻¹ s⁻¹
- Kd [13]: 200 pM
B2: CA170_1638.g49 IgG4P (antibody)
heavy: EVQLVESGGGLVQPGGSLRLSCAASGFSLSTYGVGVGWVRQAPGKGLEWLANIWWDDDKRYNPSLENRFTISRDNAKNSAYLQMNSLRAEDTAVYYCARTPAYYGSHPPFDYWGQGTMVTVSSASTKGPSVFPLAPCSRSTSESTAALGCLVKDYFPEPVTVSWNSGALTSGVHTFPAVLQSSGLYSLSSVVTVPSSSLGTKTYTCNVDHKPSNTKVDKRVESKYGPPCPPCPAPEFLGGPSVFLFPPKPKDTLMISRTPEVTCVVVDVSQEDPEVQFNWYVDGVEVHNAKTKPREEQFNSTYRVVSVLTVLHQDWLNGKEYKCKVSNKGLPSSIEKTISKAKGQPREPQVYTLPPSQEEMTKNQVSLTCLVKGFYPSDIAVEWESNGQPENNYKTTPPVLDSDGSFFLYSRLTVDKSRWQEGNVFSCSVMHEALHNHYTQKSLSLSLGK
light: DIQMTQSPSSLSASVGDRVTITCRTSEDIYTNLAWYQQKPGKVPKLLIYVAKTLQEGVPSRFSGSGSGTHYTLTISSLQPEDVATYYCLQGFKFPWTFGGGTKVEIKRTVAAPSVFIFPPSDEQLKSGTASVVCLLNNFYPREAKVQWKVDNALQSGNSQESVTEQDSKDSTYSLSSTLTLSKADYEKHKVYACEVTHQGLSSPVTKSFNRGEC
notes: In the flow cytometry assays the antibody was labelled with AlexaFluor 488; also called 1638.49 g IgG4
